Measurements reported in publication PMC9197780.

Key:
Assay in all cases: SPR
ADI-56046 (human) = target: ADI-56046 (human)
B38 (human) = target: B38 (human)
C105 (human) = target: C105 (human)
CB6 (human) = target: CB6 (human)
P17 (human) = target: P17 (human)
P2B-2F6 (human) = target: P2B-2F6 (human)

SARS-CoV-2 Omicron BA.3 RBD protein with His-tag, spike residues 319-541 (from UniProt P0DTC2 319-541) (domain or fragment)
Kd (ADI-56046 (human)): 18000 nM | Kd (B38 (human)): > 500 nM | Kd (C105 (human)): > 500 nM | Kd (CB6 (human)): > 500 nM | Kd (P17 (human)): 3500 nM

SARS-CoV-2 Omicron BA.2 RBD protein with His-tag, spike residues 319-541 (from UniProt P0DTC2 319-541) (domain or fragment)
Kd (P2B-2F6 (human)): 5100 nM

SARS-CoV-2 Omicron BA.1 RBD protein with His-tag, spike residues 319-541 (from UniProt P0DTC2 319-541) (domain or fragment)
Kd (ADI-56046 (human)): 2300 nM

SARS-CoV-2 Omicron BA.1.1 RBD protein with His-tag, spike residues 319-541 (from UniProt P0DTC2 319-541) (domain or fragment)
Kd (ADI-56046 (human)): 1500 nM
